Laboratory results as given in patent publication US9260754B2, “Connexin mutation detection for lymphatic variation and disease” (University of Pittsburgh—Of the Commonwealth System of …, priority 2010, dated 2016).
Changes are numbered by the printed parent chain. Numbers in names are those of the source. Entries after “also recorded” stand apart in the source; their conditions may differ.

B1: G183C: Cx47 missense mutant G183C (547G>T), intracellular loop, construct expressed in HeLa cells (protein, listed as Homo sapiens)
chain: MSWSFLTRLLEEIHNHSTFVGKVWLTVLVVFRIVLTAVGGEAIYSDEQAKFTCNTRQPGCDNVCYDAFAPLSHVRFWVFQIVVISTPSVMYLGYAVHRLARASEQERRRALRRRPGPRRAPRAHLPPPHAGWPEPADLGEEEPMLGLGEEEEEEETGAAEGAGEEAEEAGAEEACTKAVGADCKAAGTPGPTGQHDGRRRIQREGLMRVYVAQLVARAAFEVAFLVGQYLLYGFEVRPFFPCSRQPCPHVVDCFVSRPTEKTVFLLVMYVVSCLCLLLNLCEMAHLGLGSAQDAVRGRRGPPASAPAPAPRPPPCAFPAAAAGLACPPDYSLVVRAAERARAHDQNLANLALQALRDGAAAGDRDRDSSPCVGLPAASRGPPRAGAPASRTGSATSAGTVGEQGRPGTHERPGAKPRAGSEKGSASSRDGKTTVWI
B2: P313L: Cx47 missense mutant P313L (938C>T), C-terminal, construct expressed in HeLa cells (protein, listed as Homo sapiens)
chain: B1 chain with C183G, P313L
B3: H409Y: Cx47 missense mutant H409Y (1225C>T), C terminal, construct expressed in HeLa cells or LECs (protein, listed as Homo sapiens)
chain: B1 chain with C183G, H409Y
B4: S45L: Cx47 missense mutant S45L (134C>T), extracellular loop 1, construct expressed in HeLa cells (protein, listed as Homo sapiens)
chain: B1 chain with S45L, C183G
B5: R257C: Cx47 missense mutant R257C (769C>T), extracellular loop 2, construct expressed in HeLa cells (protein, listed as Homo sapiens)
chain: B1 chain with C183G, R257C

How the values were obtained:
HeLa cell pairs = assay: Dual whole cell patch clamp recording of coupling current in transfected HeLa cell pairs; format: cell-based, human; settings: for electrical coupling: Table 6 (Example 4); for electrical coupling / elect coupling: HeLa cell pairs, 100 mV step, mean ± SEM; for electrical coupling / functional channels in HeLa cell pairs (in words): transfected HeLa cell pairs, voltage step protocol −100 to +100 mV; for elect coupling: Table 3 (Example 2)
Procedure: Coupling currents were recorded using simultaneous double whole-cell patch clamp recordings from isolated pairs of cells that were in contact with one another (determined visually) as previously described. Briefly, the pipette solution consisted of (mM): 130 CsCl, 10 EGTA, 10 HEPES, 3 Mg-ATP, 2 Na-ATP, 0.5 CaCl2, pH 7.3. The culture was bathed in a solution consisting of (mM): 140 NaCl, 5 HEPES, 5 glucose, 4 KCl, 2 CsCl, 2 CaCl2, 2 pyruvate, 1 BaCl2, pH 7.3. Transfected HeLas undergo electrophysiologic analysis in a blinded manner. Pairs of cells were chosen for study only if both expressed the GFP marker indicative of successful transfections; both stable and transient transfectants were analyzed. Patch pipettes were fabricated from borosilicate glass, and coupling currents were amplified by Axopatch 200A amplifiers, filtered at 1 KHz, and digitized at 5 KHz for subsequent analysis using pClamp software (Axon Instruments/Molecular Devices; Sunnyvale, Calif.). All experiments were carried out at room temperature (22° C.). Coupling current was quantified by measuring the peak current recorded in the pair when the neighboring cell received a 100 mV step membrane potential change (in both positive and negative directions). Step changes in membrane potential were delivered to each cell in the pair in sequence and the average current recorded in the neighboring cell was determined and divided by 100 to generate coupling current expressed in pA/mV. Means±SEM were calculated and statistical significance using a one-way analysis of variance and Tukey's post-hoc test, p<0.05.
Coupling current is quantified by measuring the peak current recorded in the pair when the neighboring cell receives a 100 mV step membrane potential change (in both positive and negative directions). Step changes in membrane potential are delivered to each cell in the pair in sequence and the average current recorded in the neighboring cell determined and divided by 100 to generate coupling current expressed in pA/mV (FIG. 6C). Replicate measurements (n=3-6) are made on at least two different days. […] The untransfected HeLa cell pairs also show minimal channel function, as predicted.
Electrophysiologic characteristics of GJIC were measured between HeLa cell pairs transfected with the mutant constructs (as indicated by EGFP expression) by dual whole cell patch clamp recording. All experiments were carried out in a blinded manner. Coupling current is quantified by measuring the peak current recorded in the pair when the neighboring cell receives a 100 mV step membrane potential change (in both positive and negative directions). Step changes in membrane potential are delivered to each cell in the pair in sequence and the average current recorded in the neighboring cell determined and divided by 100 to generate coupling current expressed in pA/mV. Untransfected HeLa cells and cells transfected with empty vector (i.e., no hCx47) were used as additional controls.

HeLa cells [1] = assay: Wound assay (proliferation/migration) in confluent transfected HeLa cells; format: cell-based, human; settings: fraction of original wound in HeLa cell monolayer after 24 hrs; mean ± SEM
Procedure: The wound assay, a measure of proliferation/migration, was performed using differential interference contrast time lapse of over 24 hrs using confluent transfected HeLa cells. Analysis was done using TScratch (Geback T, et al. TScratch: a novel and simple software tool for automated analysis of monolayer wound healing assays. Biotechniques 2009; 46:265-74), mean±SEM of at least 10 positions along wound; the scrape width was normalized to the first image for each position. In all cases a two tailed student's T test was applied with p<0.05 considered significant.

HeLa cells [2] = assay: Cx47 gap junction plaque formation by immunofluorescent confocal microscopy in transfected HeLa cells; format: cell-based, human; settings: near confluent transfected HeLa cells
Procedure: Human neonatal foreskin was collected anonymously as discarded tissue according to an IRB protocol. Samples were collected immediately after harvest in DMEM, then fixed in 2% paraformaldehyde for 2 hrs, then stored in 30% sucrose in 1×PBS overnight for cryosectioning, and sectioned in 6 μm slices at −30° C. Transfected (stable and transient) and untransfected HeLa cells were grown to near confluence in coverslip bottom dishes. All cells were rinsed with PBS and fixed with 2% paraformaldehyde. Subsequently, tissue and HeLa cells were processed similarly: following permeabilization with 0.1% Triton X, cells were blocked with 2% BSA. A human Cx47 antibody (ab) was obtained from the S. Scherer laboratory: polyclonal rabbit against amino acids 344-399 in the cytoplasmic C-terminal tail; we used human CNS tissue and positive oligodendrocyte staining as a positive control and primary antibody delete and rabbit IgG as negative controls (data not shown). Cx47 ab was diluted in 0.5% BSA in a 1:200 ratio, applied to cells and incubated at RT for one hour. Mouse monoclonal Proxl (Chemicon) was used as a lymphatic marker for the foreskin samples. Cells were incubated with the secondary abs (Donkey Anti-Rabbit Cy5 and Donkey Anti-Mouse Cy3; Invitrogen) for one hour at RT and washed; Draq5 was used as a nuclear marker. HeLa images were acquired with an inverted Olympus Fluoview 1000 Confocal Microscope 100× oil, 1.4 NA objective. Foreskin images were acquired on a Zeiss Meta LSM 510 inverted confocal microscope with 40× oil, 1.3 N.A. objective. LECs (primary human microvascular adult dermal lymphatics; Lonza) were grown in fibronectin coated coverslip bottom MatTeks dishes in EGM™-2 MV—Microvascular Endothelial Cell Medium-2 (Lonza Inc.) to approximately 80% confluence, and prepared similarly but a commercially available (AbCam) Cx47 ab, polyclonal rabbit against amino acids 41-70 in the human sequence was used along with Drag 5 nuclear marker and phalloidin to mark f-actin.
Immunofluorescence microscopy determines the presence or absence of Cx47 gap junction plaques when the constructs are transiently expressed in HeLa cells. Cx plaques reflect a physiologic accumulation of Cx channels in the cell membrane between cells (tens to thousands of channels); thus plaques are indicative of normal trafficking and gap junction formation at the cell membrane.
Immunofluorescence microscopy determines the presence or absence of Cx47 gap junction plaques when the constructs are transiently expressed in HeLa cells. A human Cx47 antibody was obtained: polyclonal rabbit against amino acids 344-399 in the cytoplasmic C-terminal tail (Orthmann-Murphy J L, et al. Mol Cell Neurosci 2007; 34:629-41); we used human CNS tissue and positive oligodendrocyte staining as a positive control and primary antibody delete as a negative control (data not shown). Cultured HeLa cells were routinely fixed and stained with the primary antibodies against Cx47, along with a nuclear marker, and transfected cells were identified by their EGFP signal. Plaques were imaged using an Olympus Fluoview 1000 confocal microscope, 100× oil objective.

HeLa cells [3] = assay: Calcein AM scrape loading and dye transfer in stably transfected HeLa cells; format: cell-based, human; settings: for dye transfer: ratio, rate normalized to untransfected HeLa cells, Calcein AM scrape loading, 10 min, stably transfected HeLa, mean ± SEM
Procedure: A confluent monolayer of HeLa cells (untransfected and stably transfected, as described above) was grown in DMEM with 10% FBS in coverslip bottom plates (MatTek) and placed in a temperature controlled microincubator (Zeiss). A 10×, 0.4 NA objective was used to collect DIC and GFP images every 5 seconds for 10 minutes without changing media. A pipette loaded with 1 μl Calcein AM (Invitrogen), a gap junction permissive dye with molecular weight 662, −4 charge when intracellular and fluorescent, was used to create a scrape across the monolayer. At least 5 replicate dishes were analyzed on the same day, and WT hCx47 expressing HeLas were grown and assayed as a concurrent control; assays were performed on at least 2 different batches of HeLa cells on different days. Quantitation of the rate of spread was calculated using MetaMorph, by obtaining integrated intensity at the 10th time point, within the first minute of imaging, and then at the endpoint at 10 min, and subtracting the initial intensity from that at the endpoint. Results are reported as mean and SEM, and tested for significance (p<0.05) using an unpaired Student's t-test.
In these mutants, Cx47 appears to concentrate in the ER. Unlike electrophysiologic measurements, dye transfer assays are used to assess GJIC of relatively large molecules. We also found significant differences in GJIC in HeLa cells overexpressing Cx47 lymphedema associated mutations by assessing rates of dye transfer in a conventional scrape assay using stably transfected HeLa cells normalized to rates in untransfected HeLa cells (FIG. 7D; Table 3). […] It is not surprising that the mutants show some differences in GJIC between the electrophysiologic and dye transfer assays given that they are designed to measure different kinds of transport and that Cx channel permeability is now believed to be governed by factors including molecular shape, charge and size, in addition to channel conformation and composition.

[4] = system: Adult human dermal lymphatic microvascular endothelial cells; assay: Lucifer yellow microinjection dye spread in lymphatic endothelial cells expressing mutant constructs; format: cell-based
Procedure: Adult human dermal lymphatic microvascular endothelial cells were cultured in EGM™-2 MV (both from Lonza). Cells were electroporated with 2 μg cDNA of the EGFP tagged mutant constructs and then selected with G418 as described above. Cells were microinjected using a combination (1:4 ratio) of 70 kd Texas Red dextran (Invitrogen) to mark injected cell for reference and Lucifer yellow, a known gap junction permeable dye (m.w. 443, −2 charge), to assess change in extent of spread (Abbaci M, et al. Advantages and limitations of commonly used methods to assay the molecular permeability of gap junctional intercellular communication. Biotechniques 2008; 45:33-52, 6-62). All cells were injected using constant conditions and cells were scored for dye spread in tiers from reference cell, using constant exposure time and thresholding, and were imaged using a Nikon TE2000 with temperature controlled motorized stage and Qlmaging Retiga CCD camera. Images were obtained using differential interference contrast (DIC) and standard filters for EGFP (identify expression of mutation), DAPI (for Lucifer yellow) and dsRed (for dextran) preinjection, immediately post-injection and 2 min after injection. Results were calculated as mean SEM and statistical significance was determined in comparison to WT-hCx47-EGFP expressing cells using a Mann-Whitney Test.

Molecule	electrical coupling (HeLa cell pairs) [pA/mV]	electrical coupling / functional channels in HeLa cell pairs (in words) (HeLa cell pairs)	wound assay (HeLa cells [1])	Cx47 plaque formation (in words) (HeLa cells [2])	elect coupling (HeLa cell pairs) [pA/mV]	dye transfer (HeLa cells [3])	LEC spread ([4]; Dye spread to tiers of LECs after 2 min, Lucifer yellow microinjection, mean ± SEM) [tiers]	dye transfer of Lucifer yellow after microinjection compared to WT-hCx47-EGFP expressing LECs (in words) ([4]; LECs expressing the mutations)	Calcein AM dye transfer compared to WT-hCx47 transfected HeLa cells (in words) (HeLa cells [3]; stably transfected HeLa cells, scrape assay)
B1	68.6	increased electrical coupling; also recorded: increased peak coupling currents	0.68	Cx47 intercellular plaques					
B2		well coupled			37.6	2.10			
B3	46.4	well coupled	0.73	Cx47 intercellular plaques			0.07	dramatically impaired dye transfer	
B4		absence of coupling; also recorded: do not exhibit functional channels		absence; also recorded: fail to demonstrate Cx 47 plaques	0.1	1.11			
B5		absence of coupling; also recorded: do not exhibit functional channels		absence; also recorded: fail to demonstrate Cx 47 plaques	0.0	2.56			significantly greater dye transfer
